Assay results: publication PMC4081077, “Sequence-specific interactions of Rep proteins with ssDNA in the AT-rich region of the plasmid replication origin”

Legend:
[1] = biological target: T1, TrfA-33 G254D/S267L (monomeric) (plasmid RK2, UniProt P07676 98-382, G254D;S267L); assay: SPR; 0.1-1 uM TrfA; higher affinity than bottom ssDNA; EMSA: 40 mM HEPES-KOH pH 8, 25 mM Tris-HCl pH 7.6, 100 mM NaCl, 4% sucrose, 4 mM DTT, 80 ug/ml BSA, 32 C 20 min, 1 pmol probe, 5-20 pmol Rep; SPR: HBS-EP (150 mM NaCl, 10 mM HEPES pH 7.4, 3 mM EDTA, 0.005% P20); settings: protein: recombinant; label: biotin; blunt
T1 sequence: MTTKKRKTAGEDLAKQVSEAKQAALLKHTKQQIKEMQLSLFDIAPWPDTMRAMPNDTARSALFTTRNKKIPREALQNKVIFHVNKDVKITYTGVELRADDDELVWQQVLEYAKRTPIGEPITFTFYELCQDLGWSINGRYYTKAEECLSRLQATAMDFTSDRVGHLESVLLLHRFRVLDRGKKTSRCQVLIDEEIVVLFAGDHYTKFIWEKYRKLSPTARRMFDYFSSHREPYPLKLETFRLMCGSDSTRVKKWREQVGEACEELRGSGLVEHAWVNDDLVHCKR

[2] = biological target: T1, TrfA-33 G254D/S267L (monomeric); assay: EMSA; EMSA: 40 mM HEPES-KOH pH 8, 25 mM Tris-HCl pH 7.6, 100 mM NaCl, 4% sucrose, 4 mM DTT, 80 ug/ml BSA, 32 C 20 min, 1 pmol probe, 5-20 pmol Rep; SPR: HBS-EP (150 mM NaCl, 10 mM HEPES pH 7.4, 3 mM EDTA, 0.005% P20); settings: protein: recombinant; label: Alexa555 3' tailed (EMSA); immobilized on streptavidin chip (SPR); fluorescent (gel filtration)
[3] = biological target: T1, TrfA-33 G254D/S267L (monomeric); assay: SPR; 0.1-1 uM TrfA; response over five times lower than wild type; EMSA: 40 mM HEPES-KOH pH 8, 25 mM Tris-HCl pH 7.6, 100 mM NaCl, 4% sucrose, 4 mM DTT, 80 ug/ml BSA, 32 C 20 min, 1 pmol probe, 5-20 pmol Rep; SPR: HBS-EP (150 mM NaCl, 10 mM HEPES pH 7.4, 3 mM EDTA, 0.005% P20); settings: protein: recombinant; label: Alexa555 3' tailed (EMSA); immobilized on streptavidin chip (SPR); fluorescent (gel filtration)
[4] = biological target: T1, TrfA-33 G254D/S267L (monomeric); assay: EMSA; up to 20 pmol TrfA per 1 pmol probe; EMSA: 40 mM HEPES-KOH pH 8, 25 mM Tris-HCl pH 7.6, 100 mM NaCl, 4% sucrose, 4 mM DTT, 80 ug/ml BSA, 32 C 20 min, 1 pmol probe, 5-20 pmol Rep; SPR: HBS-EP (150 mM NaCl, 10 mM HEPES pH 7.4, 3 mM EDTA, 0.005% P20); settings: protein: recombinant; label: Alexa555 3' tailed (EMSA); immobilized on streptavidin chip (SPR); fluorescent (gel filtration)
RepE R118P (monomeric) = RepE R118P (monomeric) (plasmid F, UniProt P03856 1-251, R118P); assay: gel filtration; tripartite with plasmid cccDNA; EMSA: 40 mM HEPES-KOH pH 8, 25 mM Tris-HCl pH 7.6, 100 mM NaCl, 4% sucrose, 4 mM DTT, 80 ug/ml BSA, 32 C 20 min, 1 pmol probe, 5-20 pmol Rep; SPR: HBS-EP (150 m)

B1: dsDNA iterons (five RK2 iterons) (dsDNA)
DNA 1: CCTGCGGTATTGACACTTGAGGGGCGCGACTACTGACAGATGAGGGGCGCGATCCTTGACACTTGAGGGGCAGAGTGATGACAGATGAGGGGCGCACCTATTGACATTTGAGGGGCTGTCCACAGGCAG
DNA 2: CTGCCTGTGGACAGCCCCTCAAATGTCAATAGGTGCGCCCCTCATCTGTCATCACTCTGCCCCTCAAGTGTCAAGGATCGCGCCCCTCATCTGTCAGTAGTCGCGCCCCTCAAGTGTCAATACCGCAGG
- binding result [1]: binds

B2: ssDNA DUEoriV bottom swap M2-R (ssDNA)
DNA: CCACCGCATTGGACAGAAAATTGGACGAAAATAACCAATATTTATAAACCTTGTTTTTAACCAGGGCTGC
- binding result [2]: no binding

B3: ssDNA DUEoriV bottom swap R (ssDNA)
DNA: CCACCGCATTGGACAGAAAATTGGACGAAAATTTGGTTATAAATTAAACCTTGTTTTTAACCAGGGCTGC
- binding signal [3]: < 0.2 SPR response relative to N2

B4: ssDNA DUEoriV top (ssDNA)
DNA: CCACCGCTAACCTGTCTTTTAACCTGCTTTTAAACCAATATTTATAAACCTTGTTTTTAACCAGGGCTGC
- binding result [4]: no binding

B5: ssDNA DUEoriV bottom swap M1-R (ssDNA)
DNA: CCACCGCATTGGACAGAAAAAACCTGCTTTTAAACCAATATTTATAAACCTTGTTTTTAACCAGGGCTGC
- binding result [2]: no binding

B6: ssDNA DUEoriS bottom (ssDNA)
DNA: GCTCTAAAAAAGAAGATCTAAAAACTATAAAAAAAATAATTATAAAAATATCCCCGTG
- binding result (RepE R118P (monomeric)): binds
